Consider two molecules from patent US6900033 (dated 2005).

Positions of bridges follow the written chain, without caps; N, C: chain ends.

In general, Ki refers to the dissociation constant of the complex between target and ligand, obtained from inhibition or displacement. A lower Ki goes with higher affinity.

The target in this assay is ACE-2 (human). Nature of the assay: other, ACE-2 enzyme inhibition.
Sequence of ACE-2 (human) (Q9BYF1 1-740): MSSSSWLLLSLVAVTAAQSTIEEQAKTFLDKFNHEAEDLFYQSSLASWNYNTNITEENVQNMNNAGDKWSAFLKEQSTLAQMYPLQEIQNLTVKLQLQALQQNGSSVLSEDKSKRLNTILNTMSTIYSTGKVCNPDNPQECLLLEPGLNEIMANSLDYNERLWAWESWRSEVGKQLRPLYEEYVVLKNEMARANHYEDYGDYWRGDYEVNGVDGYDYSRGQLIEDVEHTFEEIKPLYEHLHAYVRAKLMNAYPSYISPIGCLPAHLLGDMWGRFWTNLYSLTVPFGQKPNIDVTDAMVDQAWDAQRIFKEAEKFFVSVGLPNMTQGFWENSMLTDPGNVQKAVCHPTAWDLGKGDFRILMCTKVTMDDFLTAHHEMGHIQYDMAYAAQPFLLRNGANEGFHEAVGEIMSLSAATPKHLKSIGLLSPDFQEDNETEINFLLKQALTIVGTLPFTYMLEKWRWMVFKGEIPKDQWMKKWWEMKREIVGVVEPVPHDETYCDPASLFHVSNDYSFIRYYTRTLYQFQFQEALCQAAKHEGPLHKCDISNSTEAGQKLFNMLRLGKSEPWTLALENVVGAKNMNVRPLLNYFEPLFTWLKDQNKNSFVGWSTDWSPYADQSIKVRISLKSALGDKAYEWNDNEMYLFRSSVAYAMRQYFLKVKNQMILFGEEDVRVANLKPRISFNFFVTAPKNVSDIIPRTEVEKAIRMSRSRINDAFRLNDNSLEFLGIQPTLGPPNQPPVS

As to Ac-GDRLHCKPQRQSPWMKCQHLDPEGGG-NH2 (disulfide 6-17 (inferred)) [DX-512], the affinity, expressed as Ki, was 150 nM.
The value for Ac-GDLHACRPVRGDPWWACTLGDPEGGG-NH2 (disulfide 6-17 (inferred)) [DX-513] was 150 nM.
